Experimental data taken from patent US20220305006A1 (University of California, published 2022).

What was measured:
Assay in all cases: cell-based or functional assay
[1] = target: BACE1 expressed from a transfected plasmid in 293T cells (NRG1 and PSGL1 assays)
[2] = target: BACE in CHO-7W cells (Chinese hamster ovary cells stably transfected with wildtype human APP)
[3] = target: Recombinant Human Cathepsin D (human, UniProt P07339 65-412)
Chain of Recombinant Human Cathepsin D (P07339 65-412): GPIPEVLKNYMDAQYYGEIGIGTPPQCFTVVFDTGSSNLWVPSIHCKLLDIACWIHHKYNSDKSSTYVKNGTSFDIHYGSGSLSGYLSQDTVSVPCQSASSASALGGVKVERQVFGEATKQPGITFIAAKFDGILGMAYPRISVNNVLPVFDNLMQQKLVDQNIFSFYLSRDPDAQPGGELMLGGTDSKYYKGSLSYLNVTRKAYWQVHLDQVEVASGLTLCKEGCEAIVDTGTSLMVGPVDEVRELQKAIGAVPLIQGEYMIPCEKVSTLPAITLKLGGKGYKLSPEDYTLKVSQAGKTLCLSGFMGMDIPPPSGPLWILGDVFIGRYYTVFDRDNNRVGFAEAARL

NRG1 cleavage by BACE in co-transfected 293T cells (secreted alkaline phosphatase), EC50 [1]: > 10 µM
PSGL1 cleavage by BACE in co-transfected 293T cells (secreted alkaline phosphatase), EC50 [1]: > 10 µM
decrease of BACE cleavage product sAPPβ from CHO-7W cells, EC50 [2]: ~10 µM
Cat D activity (fluorogenic substrate), IC50 [3]: > 5 µM
B1: Peptide 65007 (peptide)
peptide: Ac-ALYPYFLPISAK-NH2
